Laboratory results from paper PMC4490372, “Architecture of TFIIIC and its role in RNA polymerase III pre-initiation complex assembly” (Nature Communications, 2015).

B1: τ131 (123–566), TPR array, wild type [S. cerevisiae] / τ138 (641–693), τ131-Interaction Region (τIR) [S. cerevisiae] (parent complex)
chain 1: VLDPEVAQLLSQANEAFVRNDLQVAERLFNEVIKKDARNFAAYETLGDIYQLQGRLNDCCNSWFLAAHLNASDWEFWKIVAILSADLDHVRQAIYCFSRVISLNPMEWESIYRRSMLYKKTGQLARALDGFQRLYMYNPYDANILRELAILYVDYDRIEDSIELYMKVFNANVERREAILAALENALDSSDEESAAEGEDADEKEPLEQDEDRQMFPDINWKKIDAKYKCIPFDWSSLNILAELFLKLAVSEVDGIKTIKKCARWIQRRESQTFWDHVPDDSEFDNRRFKNSTFDSLLAAEKEKSYNIPIDIRVRLGLLRLNTDNLVEALNHFQCLYDETFSDVADLYFEAATALTRAEKYKEAIDFFTPLLSLEEWRTTDVFKPLARCYKEIESYETAKEFYELAIKSEPDDLDIRVSLAEVYYRLNDPETFKHMLVDVVEMR
chain 2: SKKATFTDVIHDTEIYFFDQTEKNRFHRGKKSVERIRKFQNRQKNAKIKASDD
B2: τ131 (123–566), TPR array, wild type [S. cerevisiae] / τ138 (546–693), eWH-τIR [S. cerevisiae] (parent complex)
chain 1: B1 chain 1
chain 2: SARSLRSLQRQRAILKVMNTIGGVAYLREQFYESVSKYMGSTTTLDKKTVRGDVDLMVESEKLGARTEPVSGRKIIFLPTVGEDAIQRYILKEKDSKKATFTDVIHDTEIYFFDQTEKNRFHRGKKSVERIRKFQNRQKNAKIKASDD

Variants of: B1
Experiment: ITC; parent: 80 nM
Variant chain 1 VLDPEVAQLLSQANEAFVRNDLQVAERLFNEVIKKDARNFAAYETLGDIYQLQGRLNDCCNSWFLAAHLNASDWEFWKIVAILSADLDHVRQAIYCFSRVISLNPMEWESIYRRSMLYKKTGQLARALDGFQRLYMYNPYDANILRELAILYVDYDRIEDSIELYMKVFNANVERREAILAALENALDSSDEESAAEGEDADEKEPLEQDEDRQMFPDINWKKIDAKYKCIPFDWSSLNILAELFLKLAVSEVDGIKTIKKCARWIQRRESQTFWDHVPDDSEFDNRRFKNSTFDSLLAAEKEKSYNIPIDIRVRLGLLRLNTDNLVEALNHFQCLYDETFSDVADLYFKAATALTRAEKYKEAIDFFTPLLSLEEWRTTDVFKPLARCYKEIESYETAKEFYELAIKSEPDDLDIRVSLAEVYYRLNDPETFKHMLVDVVEMR [chain 1 E350K] has a Kd of 833 nM.
With chain 1 VLDPEVAQLLSQANEAFVRNDLQVAERLFNEVIKKDARNFAAYETLGDIYQLQGRLNDCCNSWFLAAHLNASDWEFWKIVAILSADLDHVRQAIYCFSRVISLNPMEWESIYRRSMLYKKTGQLARALDGFQRLYMYNPYDANILRELAILYVDYDRIEDSIELYMKVFNANVERREAILAALENALDSSDEESAAEGEDADEKEPLEQDEDRQMFPDINWKKIDAKYKCIPFDWSSLNILAELFLKLAVSEVDGIKTIKKCARWIQRRESQTFWDHVPDDSEFDNRRFKNSTFDSLLAAEKEKSYNIPIDIRVRLGLLRLNTDNLVEALNHFQCLYDETFSDVADLYFEAATALTRAEKYKEAIDFFTPLLSLEKWRTTDVFKPLARCYKEIESYETAKEFYELAIKSEPDDLDIRVSLAEVYYRLNDPETFKHMLVDVVEMR [chain 1 E376K] the Kd was 833 nM.
chain 1 VLDPEVAQLLSQANEAFVRNDLQVAERLFNEVIKKDARNFAAYETLGDIYQLQGRLNDCCNSWFLAAHLNASDWEFWKIVAILSADLDHVRQAIYCFSRVISLNPMEWESIYRRSMLYKKTGQLARALDGFQRLYMYNPYDANILRELAILYVDYDRIEDSIELYMKVFNANVERREAILAALENALDSSDEESAAEGEDADEKEPLEQDEDRQMFPDINWKKIDAKYKCIPFDWSSLNILAELFLKLAVSEVDGIKTIKKCARWIQRRESQTFWDHVPDDSEFDNRRFKNSTFDSLLAAEKEKSYNIPIDIRVRLGLLRLNTDNLVEALNHFQCLYDETFSDVADLYFEAATALTRAEKYKEAIDFFTPLLSLKEWRTTDVFKPLARCYKEIESYETAKEFYELAIKSEPDDLDIRVSLAEVYYRLNDPETFKHMLVDVVEMR [chain 1 E375K] gave a Kd of 89 nM.

Variants of: B2
Experiment: ITC; parent: 100 nM
For chain 1 VLDPEVAQLLSQANEAFVRNDLQVAERLFNEVIKKDARNFAAYETLGDIYQLQGRLNDCCNSWFLAAHLNASDWEFWKIVAILSADLDHVRQAIYCFSRVISLNPMEWESIYRRSMLYKKTGQLARALDGFQRLYMYNPYDANILRELAILYVDYDRIEDSIELYMKVFNANVERREAILAALENALDSSDEESAAEGEDADEKEPLEQDEDRQMFPDINWKKIDAKYKCIPFDWSSLNILAELFLKLAVSEVDGIKTIKKCARWIQRRESQTFWDHVPDDSEFDNRRFKNSTFDSLLAAEKEKSYNIPIDIRVRLGLLRLNTDNLVEALNHFQCLYDETFSDVADLYFEAATALTRAEKYKEAIDFFTPLLSLEKWRTTDVFKPLARCYKEIESYETAKEFYELAIKSEPDDLDIRVSLAEVYYRLNDPETFKHMLVDVVEMR [chain 1 E376K], the Kd was 971 nM.
chain 1 VLDPEVAQLLSQANEAFVRNDLQVAERLFNEVIKKDARNFAAYETLGDIYQLQGRLNDCCNSWFLAAHLNASDWEFWKIVAILSADLDHVRQAIYCFSRVISLNPMEWESIYRRSMLYKKTGQLARALDGFQRLYMYNPYDANILRELAILYVDYDRIEDSIELYMKVFNANVERREAILAALENALDSSDEESAAEGEDADEKEPLEQDEDRQMFPDINWKKIDAKYKCIPFDWSSLNILAELFLKLAVSEVDGIKTIKKCARWIQRRESQTFWDHVPDDSEFDNRRFKNSTFDSLLAAEKEKSYNIPIDIRVRLGLLRLNTDNLVEALNHFQCLYDETFSDVADLYFKAATALTRAEKYKEAIDFFTPLLSLEEWRTTDVFKPLARCYKEIESYETAKEFYELAIKSEPDDLDIRVSLAEVYYRLNDPETFKHMLVDVVEMR [chain 1 E350K] gave a Kd of 415 nM.
